Test [1] addresses T1, full length rat GHR (L43R) on BAF3 cells (clone 2E2-2B12-F4) (rat) (UniProt P16310).
T1 sequence (looked up): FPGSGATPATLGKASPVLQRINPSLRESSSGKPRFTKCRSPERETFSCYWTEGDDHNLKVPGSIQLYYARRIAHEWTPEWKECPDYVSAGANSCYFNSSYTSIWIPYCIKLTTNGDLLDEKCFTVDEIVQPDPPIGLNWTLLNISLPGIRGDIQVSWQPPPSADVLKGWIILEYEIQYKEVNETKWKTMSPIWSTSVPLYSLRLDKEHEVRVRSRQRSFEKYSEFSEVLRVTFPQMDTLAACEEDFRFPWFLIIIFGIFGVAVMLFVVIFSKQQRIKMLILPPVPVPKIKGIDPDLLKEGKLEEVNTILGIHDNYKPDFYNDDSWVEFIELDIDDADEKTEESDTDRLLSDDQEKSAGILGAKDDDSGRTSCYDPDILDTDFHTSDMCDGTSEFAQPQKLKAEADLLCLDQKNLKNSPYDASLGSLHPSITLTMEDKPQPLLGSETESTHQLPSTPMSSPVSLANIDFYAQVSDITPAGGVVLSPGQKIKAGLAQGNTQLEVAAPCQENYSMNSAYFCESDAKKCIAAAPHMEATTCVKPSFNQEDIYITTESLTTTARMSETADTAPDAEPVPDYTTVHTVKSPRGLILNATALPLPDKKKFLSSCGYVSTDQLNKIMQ
In words: cell-based or functional assay.

Test [2] addresses human growth hormone receptor on IM-9 cells (human) (UniProt P10912). As to the kind of experiment: cell-based or functional assay.
Chain of UniProt P10912 (P10912 19-638): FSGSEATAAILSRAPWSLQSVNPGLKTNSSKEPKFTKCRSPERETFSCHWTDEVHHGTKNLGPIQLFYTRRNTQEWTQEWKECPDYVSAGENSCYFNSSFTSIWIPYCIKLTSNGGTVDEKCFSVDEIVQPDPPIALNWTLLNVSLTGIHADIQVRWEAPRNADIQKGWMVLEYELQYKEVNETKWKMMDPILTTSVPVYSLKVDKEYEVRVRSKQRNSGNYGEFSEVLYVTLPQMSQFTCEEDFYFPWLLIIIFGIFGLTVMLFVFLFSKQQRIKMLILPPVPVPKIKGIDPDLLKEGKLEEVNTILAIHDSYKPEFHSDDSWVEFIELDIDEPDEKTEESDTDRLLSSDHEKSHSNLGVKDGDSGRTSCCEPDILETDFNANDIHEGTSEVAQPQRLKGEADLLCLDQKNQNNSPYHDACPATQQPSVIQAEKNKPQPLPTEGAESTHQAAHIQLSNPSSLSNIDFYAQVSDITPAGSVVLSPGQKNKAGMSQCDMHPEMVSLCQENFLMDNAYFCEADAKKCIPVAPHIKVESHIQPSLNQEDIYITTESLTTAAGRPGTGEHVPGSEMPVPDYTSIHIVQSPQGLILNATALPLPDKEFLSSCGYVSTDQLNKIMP

With “G131pAF-30KPEG hGH (from UniProt P01241 27-217) (ligand)”, in test [1], the Proliferation EC50 worked out at 4.6 nM. In test [2], the pSTAT5 EC50 (nM) was determined as 23.8 nM.

“K145pAF-30KPEG hGH (from UniProt P01241 27-217) (ligand)”: the Proliferation EC50 in test [1] came out at 5.3 nM. The substance also came in with a pSTAT5 EC50 (nM) in test [2] of 20.6 nM.

For the substance “R134pAF-20KPEG hGH (from UniProt P01241 27-217) (ligand)”, the pSTAT5 EC50 (nM) in test [2] stood at 5.3 nM.

In test [1], “Y35pAF-40KPEG hGH (from UniProt P01241 27-217) (ligand)” showed a Proliferation EC50 of 24 nM. Also, the pSTAT5 EC50 (nM) in test [2] amounted to 53.3 nM.

Substance “Y143pAF-30KPEG hGH (from UniProt P01241 27-217) (ligand)” yielded a Proliferation EC50 in test [1] of 6.6 nM. The substance further came in with a pSTAT5 EC50 (nM) in test [2] of 12.3 nM.

The record behind these values is US20080300163A1.
